# Data from the RNAGym collection of RNA variant scans (doi:10.7554/elife.90254).
# B1: OR4K15 (parent)
# chain: GUUAACGGUCAUAGGCCAUGGAAACUAGGAGCACCAUUUCGCUGCCAGUGAAGAAAUGAACAAAGAAAAUCUGGGCCAGGCAGGCAUCAAAAGAAAUAGUCUUGCGCUCAACCAGAAAGUCUGUAAUCAUUUUAAGGGUA
# Variants of: B1
# Assay: self-cleavage, relative activity (ratio to wild type); higher = more cleavage; in vitro, sequencing; the parent is a self-cleaving ribozyme
row,Variant,self-cleavage
1,A5G A114U,0.04
2,A5G A114G,0.41
3,A4G U122C,0.78
4,A4G A36G,1.43
5,A4U A140U,1.5
6,C6A A67G,0.72
7,A5U G104A,0.09
8,U3C C101U,0.51
9,A5C A116G,0.83
10,U3C U124C,0.9
11,C6U A114U,0.07
12,U3C U87C,0.63
13,A5G U37C,1.29
14,A5G U37A,1.3
15,C6A A125G,0.29
16,A5G A78C,0.62
17,U3C U37C,1.05
18,A4C U87C,0.81
19,C6U A23G,1.15
20,A5G A24C,0.68
21,A5G G58A,1.07

row,Variant,self-cleavage
1,C6G U130C,0.63
2,U3C A52U,1.8
3,A4U A59U,1.95
4,U3C A66G,1.45
5,A4G U102C,1.36
6,A5U C109U,0.68
7,A4G G83A,1.44
8,A5G C101A,0.25
9,C6A C61U,0.76
10,A4G U49A,0.8
11,A4G U49C,0.82
12,A5U A36U,2.27
13,A5U A54U,1.7
14,A5U U9C,1.27
15,A5C A59U,1.73
16,C6U A82G,0.72
17,A4G A125G,0.55
18,U3C A86C,0.37
19,U3C A86G,1.05
20,A4G C85U,0.99
21,A4G U70C,0.79

row,Variant,self-cleavage
1,C6G U19A,1.65
2,A5C U87C,0.73
3,A4G A24G,1.62
4,A5C A30G,0.85
5,A4G C105U,0.14
6,A4G U43C,1.35
7,A5G U49A,0.9
8,A4C A24U,0.5
9,A4C A24G,0.75
10,A4U A114U,0.22
11,A5G C85U,0.92
12,A5G G99A,0.66
13,A5U A111G,0.06
14,C6U U43A,0.96
15,A4U A47G,0
16,C6U U37C,1.08
17,A5G A116G,0.47
18,A5G C45A,0.99
19,C6A U43C,0.5
20,A4G A51G,1.01
21,A5U C42A,1.82

row,Variant,self-cleavage
1,A5U U131C,1.52
2,A5G A36G,0.8
3,A5G A36C,1.79
4,A5G A134U,1.24
5,A4U U132C,2.14
6,A4G G137U,2
7,A5G G29A,1.06
8,A5U A22G,0.69
9,A4G A91G,1.13
10,A4G A91U,1.36
11,A5U A129G,0.79
12,A5C A110U,0.95
13,A4G U9C,1.33
14,U3C A117G,1.69
15,A4U A36U,1.62
16,A5G U97A,1.57
17,A5G A129G,0.87
18,A4G A11G,0.86
19,A4G C35A,1.14
20,C6U U49C,0.83
21,U3C G84C,0.37
